{
  "source": "patent US20230279130A1",
  "molecular_target": "full length human CCR8 (hCCR8) (human) (UniProt P51685)",
  "data": [
    {"binder": "benchmark anti-CCR8 antibody 4A19 (Bristol Myers Squibb) (antibody, from another filing, IgG1, V domains shown) VH: QVQLVQSGAEVKKPGASVKVSCKASGYTFTDSEMHWVRQATGQGLEWMGAIQPETGGTAYNQKFKARVTMTRDTSISTAYMELSSLRSEDTAVYYCARRRRNFDYWGQGTLVTVSS VL: DIVMTQTPLSLSVTPGQPASISCRSSQSLFHSSGNTYLHWYLQKPGQPPQLLIYKVSNRFSGVPDRFSGSGSGTDFTLKISRVEAEDVGVYYCSQSTHVPFTFGQGTKLEIKR", "values": [
      {"measurement": "IC50, inhibition of chemotaxis of hCCR8-transfected P815 cells to 1 nM CCL1 (intact IgG1, Cell Titer Glo)", "value": 6.53, "unit": "ng/mL"}
    ]}
  ]
}
